Substitutions are numbered along the chain they refer to. Names may count otherwise.
B1: Antibody 2-14 (antibody, human IgG1, kappa)
light: ACPGKGLPSCGGGSSGGSGVPLSLYSGGEIVLTQSPDFQSVTPKEKVTITCSANSALSYMYWYQQKPDQSPKLWVHGTSNLASGVPSRFSGSGSGTDFTLTINSLEAEDAATYYCHHWSNTQWTFGGGTKVEIKRTVAAPSVFIFPPSDEQLKSGTASVVCLLNNFYPREAKVQWKVDNALQSGNSQESVTEQDSKDSTYSLSSTLTLSKADYEKHKVYACEVTHQGLSSPVTKSFNRGEC
heavy: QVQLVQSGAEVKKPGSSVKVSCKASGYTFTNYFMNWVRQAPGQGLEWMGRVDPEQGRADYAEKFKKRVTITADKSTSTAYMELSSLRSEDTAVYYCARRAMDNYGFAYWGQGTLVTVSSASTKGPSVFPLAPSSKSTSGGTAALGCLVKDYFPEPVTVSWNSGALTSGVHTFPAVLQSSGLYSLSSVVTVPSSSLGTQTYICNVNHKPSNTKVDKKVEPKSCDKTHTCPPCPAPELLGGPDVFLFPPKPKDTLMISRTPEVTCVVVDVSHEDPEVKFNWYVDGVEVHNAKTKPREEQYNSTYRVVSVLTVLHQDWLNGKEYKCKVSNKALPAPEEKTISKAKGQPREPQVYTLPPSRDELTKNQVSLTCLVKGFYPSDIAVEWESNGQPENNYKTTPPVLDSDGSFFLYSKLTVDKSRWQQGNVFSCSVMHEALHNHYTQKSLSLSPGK
B2: Antibody 2-15 (antibody, human IgG1, kappa)
light: B1 light with V20G, P21S, L22G, S23G, L24S, Y25G
heavy: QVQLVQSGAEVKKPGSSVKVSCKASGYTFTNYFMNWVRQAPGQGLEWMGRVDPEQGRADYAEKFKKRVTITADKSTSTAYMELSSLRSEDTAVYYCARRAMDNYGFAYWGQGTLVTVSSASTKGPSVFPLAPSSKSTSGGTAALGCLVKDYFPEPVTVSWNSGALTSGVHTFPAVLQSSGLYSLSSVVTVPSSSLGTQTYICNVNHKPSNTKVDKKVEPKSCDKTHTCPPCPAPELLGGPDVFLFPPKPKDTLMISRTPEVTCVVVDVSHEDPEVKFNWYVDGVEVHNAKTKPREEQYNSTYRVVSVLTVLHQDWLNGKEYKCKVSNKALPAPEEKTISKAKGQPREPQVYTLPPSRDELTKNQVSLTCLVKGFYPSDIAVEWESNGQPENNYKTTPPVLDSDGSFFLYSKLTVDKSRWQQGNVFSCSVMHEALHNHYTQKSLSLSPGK
B3: masking peptide CNLIVEGHC (peptide)
peptide: CNLIVEGHC
notes: Selected from the Ph.D.-C7C phage library; also called sterically occluded peptide
B4: parental anti-CTLA4 antibody (9D9), murine IgG2a (antibody)
light: DIVMTQTTLSLPVSLGDQASISCRSSQSIVHSNGNTYLEWYLQKPGQSPKLLIYKVSNRFSGVPDRFSGSGSGTDFTLKISRVEAEDLGVYYCFQGSHVPYTFGGGTKLEIKRADAAPTVSIFPPSSEQLTSGGASVVCFLNNFYPKDINVKWKIDGSERQNGVLNSWTDQDSKDSTYSMSSTLTLTKDEYERHNSYTCEATHKTSTSPIVKSFNRNEC
heavy: EAKLQESGPVLVKPGASVKMSCKASGYTFTDYYMNWVKQSHGKSLEWIGVINPYNGDTSYNQKFKGKATLTVDKSSSTAYMELNSLTSEDSAVYYCARYYGSWFAYWGQGTLITVSSAKTTAPSVYPLAPVCGDTTGSSVTLGCLVKGYFPEPVTLTWNSGSLSSGVHTFPAVLQSDLYTLSSSVTVTSSTWPSQSITCNVAHPASSTKVDKKIEPRGPTIKPCPPCKCPAPNLLGGPSVFIFPPKIKDVLMISLSPIVTCVVVDVSEDDPDVQISWFVNNVEVHTAQTQTHREDYNSTLRVVSALPIQHQDWMSGKEFKCKVNNKDLPAPIERTISKPKGSVRAPQVYVLPPPEEEMTKKQVTLTCMVTDFMPEDIYVEWTNNGKTELNYKNTEPVLDSDGSYFMYSKLRVEKKNWVERNSYSCSVVHEGLHNHHTTKSFSRTPGK
notes: Made at ATUM by HEK293 transient expression as murine IgG2a; reactive against murine CTLA4; also called 9D9.IgG2a; 9D9 IgG2a
B5: activatable masked anti-CTLA4 antibody (masked 9D9) (antibody, mouse IgG2a, kappa)
light: ACNLIVEGHCGGSVPLSLYSGGGDIVMTQTTLSLPVSLGDQASISCRSSQSIVHSNGNTYLEWYLQKPGQSPKLLIYKVSNRFSGVPDRFSGSGSGTDFTLKISRVEAEDLGVYYCFQGSHVPYTFGGGTKLEIKRADAAPTVSIFPPSSEQLTSGGASVVCFLNNFYPKDINVKWKIDGSERQNGVLNSWTDQDSKDSTYSMSSTLTLTKDEYERHNSYTCEATHKTSTSPIVKSFNRNEC
heavy: B4 heavy
notes: Murine IgG2a; also called masked anti-CTLA4 antibody 2
B6: Antibody 2-16 (colon tumor) (antibody)
heavy chain: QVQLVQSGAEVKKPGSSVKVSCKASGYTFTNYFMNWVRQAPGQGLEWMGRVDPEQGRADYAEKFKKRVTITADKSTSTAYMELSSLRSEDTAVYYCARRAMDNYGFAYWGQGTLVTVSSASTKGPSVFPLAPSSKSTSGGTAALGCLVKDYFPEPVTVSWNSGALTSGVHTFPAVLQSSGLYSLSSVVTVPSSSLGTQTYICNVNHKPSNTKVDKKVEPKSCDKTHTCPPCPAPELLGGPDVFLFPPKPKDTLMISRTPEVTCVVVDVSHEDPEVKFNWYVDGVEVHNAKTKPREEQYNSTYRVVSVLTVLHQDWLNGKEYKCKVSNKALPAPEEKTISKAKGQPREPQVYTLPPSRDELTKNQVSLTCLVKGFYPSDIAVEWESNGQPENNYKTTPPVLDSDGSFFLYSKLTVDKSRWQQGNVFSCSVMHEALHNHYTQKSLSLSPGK
light chain with masking components, cleaved: SGGEIVLTQSPDFQSVTPKEKVTITCSANSALSYMYWYQQKPDQSPKLWVHGTSNLASGVPSRFSGSGSGTDFTLTINSLEAEDAATYYCHHWSNTQWTFGGGTKVEIKRTVAAPSVFIFPPSDEQLKSGTASVVCLLNNFYPREAKVQWKVDNALQSGNSQESVTEQDSKDSTYSLSSTLTLSKADYEKHKVYACEVTHQGLSSPVTKSFNRGEC
notes: also called Antibody 2-16 after culture in colon tumor conditioned media (colon2 4 sept colon tumor sample)
B7: Antibody 2-6 (antibody, human IgG1, kappa)
light: EIVLTQSPDFQSVTPKEKVTITCSANSALSYMYWYQQKPDQSPKLWVHGTSNLASGVPSRFSGSGSGTDFTLTINSLEAEDAATYYCHHWSNTQWTFGGGTKVEIKRTVAAPSVFIFPPSDEQLKSGTASVVCLLNNFYPREAKVQWKVDNALQSGNSQESVTEQDSKDSTYSLSSTLTLSKADYEKHKVYACEVTHQGLSSPVTKSFNRGEC
heavy: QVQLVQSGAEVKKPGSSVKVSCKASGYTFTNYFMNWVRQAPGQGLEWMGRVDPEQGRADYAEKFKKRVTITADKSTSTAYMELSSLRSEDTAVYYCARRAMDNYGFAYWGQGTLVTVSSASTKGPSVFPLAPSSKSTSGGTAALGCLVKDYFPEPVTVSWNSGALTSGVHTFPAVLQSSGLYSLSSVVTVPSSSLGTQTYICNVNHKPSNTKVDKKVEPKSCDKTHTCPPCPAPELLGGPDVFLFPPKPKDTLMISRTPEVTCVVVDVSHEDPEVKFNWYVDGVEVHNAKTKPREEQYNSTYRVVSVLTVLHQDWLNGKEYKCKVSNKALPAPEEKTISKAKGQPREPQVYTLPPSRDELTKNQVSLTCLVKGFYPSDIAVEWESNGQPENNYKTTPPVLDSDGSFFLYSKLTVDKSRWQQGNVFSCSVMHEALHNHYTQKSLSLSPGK
notes: Unmasked version of Antibody 2 with S239D and I332E in the Fc region; also called unmasked parental antibody; parental unmasked Antibody 2-6
B8: Antibody 2-7 (Activated) (antibody)
light: B7 light
heavy: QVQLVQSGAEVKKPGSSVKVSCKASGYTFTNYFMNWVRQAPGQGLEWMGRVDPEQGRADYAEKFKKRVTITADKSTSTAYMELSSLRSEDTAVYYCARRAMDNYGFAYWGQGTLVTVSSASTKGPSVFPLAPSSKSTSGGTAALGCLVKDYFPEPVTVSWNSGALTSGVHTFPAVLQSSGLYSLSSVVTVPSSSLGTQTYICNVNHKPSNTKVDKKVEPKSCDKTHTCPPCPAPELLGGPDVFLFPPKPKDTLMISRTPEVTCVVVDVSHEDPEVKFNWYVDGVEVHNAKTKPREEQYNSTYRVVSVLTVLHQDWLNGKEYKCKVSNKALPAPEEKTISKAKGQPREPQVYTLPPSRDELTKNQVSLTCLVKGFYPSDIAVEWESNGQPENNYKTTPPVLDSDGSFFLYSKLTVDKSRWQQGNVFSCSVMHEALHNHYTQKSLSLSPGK
notes: also called Antibody 2-7 with protease; not shown: remnant of the cleaved linker (part of VPLSLY and spacer SGG)
B9: Antibody 2-14, activated by protease (antibody)
light: B7 light
heavy: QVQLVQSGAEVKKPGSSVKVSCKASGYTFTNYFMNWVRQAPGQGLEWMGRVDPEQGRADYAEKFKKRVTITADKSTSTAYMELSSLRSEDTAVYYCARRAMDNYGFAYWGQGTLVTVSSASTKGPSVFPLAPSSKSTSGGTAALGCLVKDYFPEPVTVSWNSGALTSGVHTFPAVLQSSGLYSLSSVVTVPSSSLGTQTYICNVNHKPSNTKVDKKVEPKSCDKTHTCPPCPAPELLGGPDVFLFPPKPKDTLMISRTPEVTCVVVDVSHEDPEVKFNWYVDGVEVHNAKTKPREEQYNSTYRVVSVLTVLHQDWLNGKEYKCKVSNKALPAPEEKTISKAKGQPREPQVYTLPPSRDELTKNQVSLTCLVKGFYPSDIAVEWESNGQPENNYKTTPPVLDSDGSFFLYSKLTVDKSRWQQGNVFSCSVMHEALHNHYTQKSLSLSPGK
notes: also called Antibody 2-14 with protease (+); not shown: remnant of the cleaved linker (part of VPLSLY and spacer SGG)

What was measured:
[1] = biological target: T1, CTLA4 coated on an MSD plate (Homo sapiens (Human), UniProt P16410 36-161); assay: binding to a CTLA4-coated MSD plate; antibody from plasma of MB49-bearing B-hCTLA4 mice 4 days after 10 mg/kg (28 % cleaved by FIG. 24D), IgG quantified by ELISA, 3-fold dilutions (Example 16)
T1 construct: not shown: The carrier of the coated recombinant CTLA4; It is probably the Fc of a CTLA4-Fc, as in the other ELISAs
T1 sequence (P16410 36-161 limits assumed): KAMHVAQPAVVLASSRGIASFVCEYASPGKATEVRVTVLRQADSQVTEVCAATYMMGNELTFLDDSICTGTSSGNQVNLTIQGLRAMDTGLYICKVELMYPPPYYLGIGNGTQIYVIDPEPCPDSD

[2] = biological target: T2, human CTLA4-Fc (R&D Systems, #7268-CT) (human, UniProt P16410 36-162); assay: ELISA, human CTLA4-Fc coated; protease -
T2 construct: Bought; not shown: Fc part
T2 sequence (P16410 36-162 limits assumed): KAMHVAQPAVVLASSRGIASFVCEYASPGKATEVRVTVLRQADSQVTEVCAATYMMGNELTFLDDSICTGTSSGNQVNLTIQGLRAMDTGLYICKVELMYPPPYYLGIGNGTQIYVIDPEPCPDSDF

[3] = biological target: CTLA4 on CTLA4 expressing Jurkat cells (UniProt P16410 36-223, limits assumed); assay: cell-based or functional assay
Chain of CTLA4 on CTLA4 expressing Jurkat cells (P16410 36-223 limits assumed): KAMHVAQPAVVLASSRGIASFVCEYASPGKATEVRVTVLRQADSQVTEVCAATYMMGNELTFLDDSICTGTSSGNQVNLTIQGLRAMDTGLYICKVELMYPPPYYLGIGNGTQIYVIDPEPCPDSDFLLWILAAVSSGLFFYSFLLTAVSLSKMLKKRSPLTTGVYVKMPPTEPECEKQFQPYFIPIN

[4] = biological target: T2, human CTLA4-Fc (R&D Systems, #7268-CT); assay: CTLA4 ELISA (luminescence) after culture of the masked antibody in RPMI as control
[5] = biological target: T2, human CTLA4-Fc (R&D Systems, #7268-CT); assay: ELISA, human CTLA4-Fc coated; protease +
[6] = biological target: T2, human CTLA4-Fc (R&D Systems, #7268-CT); assay: CTLA4 ELISA (luminescence) after culture of the non-cleavable masked antibody in colon tumor conditioned media
[7] = biological target: T2, human CTLA4-Fc (R&D Systems, #7268-CT); assay: CTLA4 ELISA (luminescence) after culture of the non-cleavable masked antibody in RPMI as control
[8] = biological target: B4; assay: SPR, Biacore T200, 37 C; 9D9 coupled to CM5 chip, peptide as analyte; steady-state model
[9] = biological target: T3, muCTLA4hsIgG protein (Abcam) (murine, UniProt P09793 36-161, limits assumed); assay: low density antigen binding ELISA, muCTLA4hsIgG coated; average of three experiments
T3 construct: Bought; also called murine CTLA4; not shown: human IgG part (hsIgG)

[10] = biological target: T4, murine CTLA4-Fc (R&D Systems) (murine, UniProt P09793 36-162); assay: ELISA: plate coated with murine CTLA4-Fc (R&D Systems), detection anti-muKappa-HRP, chemiluminescence (Example 3A)
T4 construct: Bought; also called muCTLA4-hsIgG (R&D Systems); not shown: human IgG Fc part (hsIgG)

[11] = biological target: T3, muCTLA4hsIgG protein (Abcam); assay: low density antigen binding ELISA, 3 ng muCTLA4hsIgG per well
[12] = biological target: T4, murine CTLA4-Fc (R&D Systems); assay: ELISA, plate-coated murine CTLA4-Fc, anti-muKappa-HRP; ratio of EC50s
[13] = biological target: T2, human CTLA4-Fc (R&D Systems, #7268-CT); assay: CTLA4 ELISA (luminescence) after culture of Antibody 2-16 in colon tumor conditioned media; the text gives 100% of molecules cleaved
[14] = biological target: T2, human CTLA4-Fc (R&D Systems, #7268-CT); assay: CTLA4 ELISA (luminescence) after culture of the antibody in RPMI as control
[15] = biological target: T2, human CTLA4-Fc (R&D Systems, #7268-CT); assay: CTLA4 ELISA (luminescence) after culture of the antibody in colon tumor conditioned media
[16] = biological target: T2, human CTLA4-Fc (R&D Systems, #7268-CT); assay: low density antigen binding ELISA, human CTLA4-Fc coated; control not exposed to protease
[17] = biological target: T1, CTLA4 coated on an MSD plate; assay: binding to a CTLA4-coated MSD plate; antibody from plasma of MB49-bearing B-hCTLA4 mice 4 days after 10 mg/kg, IgG quantified by ELISA, 3-fold dilutions (Example 16)
[18] = biological target: T2, human CTLA4-Fc (R&D Systems, #7268-CT); assay: low density antigen binding ELISA, human CTLA4-Fc coated; no protease
[19] = biological target: T2, human CTLA4-Fc (R&D Systems, #7268-CT); assay: ELISA, human CTLA4-Fc coated; protease -; remark: listed apart in the source
[20] = biological target: T2, human CTLA4-Fc (R&D Systems, #7268-CT); assay: ELISA, human CTLA4-Fc coated; protease +; remark: listed apart in the source
[21] = biological target: T2, human CTLA4-Fc (R&D Systems, #7268-CT); assay: low density antigen binding ELISA, human CTLA4-Fc coated; after protease digestion
[22] = biological target: T2, human CTLA4-Fc (R&D Systems, #7268-CT); assay: CTLA4 ELISA (luminescence) after culture of Antibody 2-14 in colon tumor conditioned media; the text gives 100% of molecules cleaved

In the case of B1, the “EC50 (read off the curve)” value [1] is reported as about 20 ng/mL, the EC50 [2] is reported as 39.4 nM and the “EC50 of FcγRIIIa (ADCC) reporter activation, without protease” value (from here on “EC50 of FcγRIIIa … without protease”) [3] is reported as 33 ng/mL. For the same binder, the “EC50 (read off the curve)” value [4] was about 10 nM.

B2 was tested, and the EC50 [2] was 24.3 nM, the “EC50 of FcγRIIIa (ADCC) reporter activation, after exposure to protease” value (“EC50 of FcγRIIIa … to protease” below) [3] was 10 ng/mL and the “EC50 of FcγRIIIa … without protease” value [3] was 19 ng/mL. For the same binder, the EC50 [5] was 17.3 nM, the “EC50 (read off the curve)” value [6] was about 8 nM and the “EC50 (read off the curve)” value [7] was about 7 nM.

B3 showed a Kd [8] of 11000 nM.

In the case of B4, the EC50 [9] is reported as 0.31 nM and the “EC50 (read off the curve)” value [10] is reported as about 0.2 nM.

B5 was tested, and the EC50 [9] was 48.4 nM, the “fold lower binding than parental anti-CTLA4 antibody” value [11] was about 156 fold and the “fold lower binding than parental anti-CTLA4 antibody (9D9)” value [12] was 90 fold.

B6 was tested, and the “EC50 (read off the curve)” value [13] was about 0.4 nM.

In the case of B7, the “EC50 (read off the curve)” value [14] is reported as about 0.6 nM, the EC50 [2] is reported as 0.39 nM and the “EC50 (read off the curve)” value [15] is reported as about 0.4 nM. For the same binder, the “EC50 of FcγRIIIa … to protease” value [3] was 0.0049 ng/mL, the “EC50 of FcγRIIIa … without protease” value [3] was 0.008 ng/mL and the EC50 [5] was 0.39 nM. For the same binder, the EC50 [16] was 0.69 nM, the “EC50 (read off the curve)” value [17] was about 7 ng/mL and the EC50 [18] was 0.69 nM. The EC50 [19] was 0.69 nM.

B8 showed an EC50 [20] of 0.58 nM and an EC50 [21] of 0.58 nM.

In the case of B9, the “EC50 (read off the curve)” value [22] is reported as about 0.4 nM, the “EC50 of FcγRIIIa … to protease” value [3] is reported as 0.0028 ng/mL and the EC50 [5] is reported as 0.41 nM.
